# Test results reported in PMC6238609, “Secretory granule protein chromogranin B (CHGB) forms an anion channel in membranes” (Life Science Alliance, 2018).
# B1: recombinant murine chromogranin B (CHGB) (natural protein, mouse, UniProt P16014 21-677, looked up)
# chain: APVDNRDHNEEMVTRCIIEVLSNALSKSSVPTITPECRQVLKKSGKEVKGEEKGENQNSKFEVRLLRDPADASGTRWASSREDAGAPVEDSQGQTKVGNEKWTEGGGHSREGVDDQESLRPSNQQASKEAKIYHSEERVGKEREKEEGKIYPMGEHREDAGEEKKHIEDSGEKPNTFSNKRSEASAKKKDESVARADAHSMELEEKTHSREQSSQESGEETRRQEKPQELTDQDQSQEESQEGEEGEEGEEGEEGEEDSASEVTKRRPRHHHGRSGSNKSSYEGHPLSEERRPSPKESKEADVATVRLGEKRSHHLAHYRASEEEPEYGEESRSYRGLQYRGRGSEEDRAPRPRSEESQEREYKRNHPDSELESTANRHGEETEEERSYEGANGRQHRGRGREPGAHSALDTREEKRLLDEGHYPVRESPIDTAKRYPQSKWQEQEKNYLNYGEEGDQGRWWQQEEQLGPEESREEVRFPDRQYEPYPITEKRKRLGALFNPYFDPLQWKNSDFEKRGNPDDSFLEDEGEDRNGVTLTEKNSFPEYNYDWWERRPFSEDVNWGYEKRSFARAPQLDLKRQYDGVAELDQLLHYRKKADEFPDFYDSEEQMGPHQEANDEKARADQRVLTAEEKKELENLAAMDLELQKIAEKFSQRG
# notes: chromogranin B (CHGB), mouse; cDNA of the mouse CHGB gene (mChgb) cloned from a pcDNA3.1 plasmid into pFastBac 1; The protein needs Triton X-100-like detergents to stay soluble; also called mCHGB; mouse CHGB; source: sf9 cells (baculovirus), purified (Q-sepharose, ammonium sulfate, Ni-IDA, Superose 6 SEC) in Triton X-100
# Assays:
# [1] = target: the molecule itself; experiment: SEC; purified CHGB in detergent (0.050% Triton X-100), Superose 6 10/30 column; single symmetric peak
# [2] = target: the molecule itself; experiment: SEC; partially purified CHGB in a Superose 6 column, earlier SEC step during purification
protein,measurement,setting,value
B1,stoichiometry N,[1],2
same,stoichiometry N,[2],4
